Measurements reported in IntAct's records for PubMed 25096571.

B1: Forkhead box protein P3 (Homo sapiens), Q9BZS1-1 (parent)
chain: MPNPRPGKPSAPSLALGPSPGASPSWRAAPKASDLLGARGPGGTFQGRDLRGGAHASSSSLNPMPPSQLQLPTLPLVMVAPSGARLGPLPHLQALLQDRPHFMHQLSTVDAHARTPVLQVHPLESPAMISLTPPTTATGVFSLKARPGLPPGINVASLEWVSREPALLCTFPNPSAPRKDSTLSAVPQSSYPLLANGVCKWPGCEKVFEEPEDFLKHCQADHLLDEKGRAQCLLQREMVQSLEQQLVLEKEKLSAMQAHLAGKMALTKASSVASSDKGSCCIVAAGSQGPVVPAWSGPREAPDSLFAVRRHLWGSHGNSTFPEFLHNMDYFKFHNMRPPFTYATLIRWAILEAPEKQRTLNEIYHWFTRMFAFFRNHPATWKNAIRHNLSLHKCFVRVESEKGAVWTVDELEFRKKRSQRPSRCSNPTPGP

Variants of: B1
Settings: with PIM1, P11309-1

| Variant | effect of a mutation on the interaction |
| --- | --- |
| MPNPRPGKPSAPSLALGPSPGASPSWRAAPKASDLLGARGPGGTFQGRDLRGGAHASSSSLNPMPPSQLQLPTLPLVMVAPSGARLGPLPHLQALLQDRPHFMHQLSTVDAHARTPVLQVHPLESPAMISLTPPTTATGVFSLKARPGLPPGINVASLEWVSREPALLCTFPNPSAPRKDSTLSAVPQSSYPLLANGVCKWPGCEKVFEEPEDFLKHCQADHLLDEKGRAQCLLQREMVQSLEQQLVLEKEKLSAMQAHLAGKMALTKASSVASSDKGSCCIVAAGSQGPVVPAWSGPREAPDSLFAVRRHLWGSHGNSTFPEFLHNMDYFKFHNMRPPFTYATLIRWAILEAPEKQRTLNEIYHWFTRMFAFFRNHPATWKNAIRHNLSLHKCFVRVESEKGAVWTVDELEFRKKRSQRPARCSNPTPGP [S422A] | decreasing interaction strength |

Variants of: B1
Settings: with PIM1, P11309-1
Remark: another data set of the same source

| Variant | effect of a mutation on the interaction |
| --- | --- |
| MPNPRPGKPSAPSLALGPSPGASPSWRAAPKASDLLGARGPGGTFQGRDLRGGAHASSSSLNPMPPSQLQLPTLPLVMVAPSGARLGPLPHLQALLQDRPHFMHQLSTVDAHARTPVLQVHPLESPAMISLTPPTTATGVFSLKARPGLPPGINVASLEWVSREPALLCTFPNPSAPRKDSTLSAVPQSSYPLLANGVCKWPGCEKVFEEPEDFLKHCQADHLLDEKGRAQCLLQREMVQSLEQQLVLEKEKLSAMQAHLAGKMALTKASSVASSDKGSCCIVAAGSQGPVVPAWSGPREAPDSLFAVRRHLWGSHGNSTFPEFLHNMDYFKFHNMRPPFTYATLIRWAILEAPEKQRTLNEIYHWFTRMFAFFRNHPATWKNAIRHNLSLHKCFVRVESEKGAVWTVDELEFRKKRAQRPSRCSNPTPGP [S418A] | decreasing interaction strength |
| MPNPRPGKPSAPSLALGPSPGASPSWRAAPKASDLLGARGPGGTFQGRDLRGGAHASSSSLNPMPPSQLQLPTLPLVMVAPSGARLGPLPHLQALLQDRPHFMHQLSTVDAHARTPVLQVHPLESPAMISLTPPTTATGVFSLKARPGLPPGINVASLEWVSREPALLCTFPNPSAPRKDSTLSAVPQSSYPLLANGVCKWPGCEKVFEEPEDFLKHCQADHLLDEKGRAQCLLQREMVQSLEQQLVLEKEKLSAMQAHLAGKMALTKASSVASSDKGSCCIVAAGSQGPVVPAWSGPREAPDSLFAVRRHLWGSHGNSTFPEFLHNMDYFKFHNMRPPFTYATLIRWAILEAPEKQRTLNEIYHWFTRMFAFFRNHPATWKNAIRHNLSLHKCFVRVESEKGAVWTVDELEFRKKRDQRPSRCSNPTPGP [S418D] | disrupting interaction strength |
| MPNPRPGKPSAPSLALGPSPGASPSWRAAPKASDLLGARGPGGTFQGRDLRGGAHASSSSLNPMPPSQLQLPTLPLVMVAPSGARLGPLPHLQALLQDRPHFMHQLSTVDAHARTPVLQVHPLESPAMISLTPPTTATGVFSLKARPGLPPGINVASLEWVSREPALLCTFPNPSAPRKDSTLSAVPQSSYPLLANGVCKWPGCEKVFEEPEDFLKHCQADHLLDEKGRAQCLLQREMVQSLEQQLVLEKEKLSAMQAHLAGKMALTKASSVASSDKGSCCIVAAGSQGPVVPAWSGPREAPDSLFAVRRHLWGSHGNSTFPEFLHNMDYFKFHNMRPPFTYATLIRWAILEAPEKQRTLNEIYHWFTRMFAFFRNHPATWKNAIRHNLSLHKCFVRVESEKGAVWTVDELEFRKKRCQRPSRCSNPTPGP [S418C] | increasing interaction strength |
| MPNPRPGKPSAPSLALGPSPGASPSWRAAPKASDLLGARGPGGTFQGRDLRGGAHASSSSLNPMPPSQLQLPTLPLVMVAPSGARLGPLPHLQALLQDRPHFMHQLSTVDAHARTPVLQVHPLESPAMISLTPPTTATGVFSLKARPGLPPGINVASLEWVSREPALLCTFPNPSAPRKDSTLSAVPQSSYPLLANGVCKWPGCEKVFEEPEDFLKHCQADHLLDEKGRAQCLLQREMVQSLEQQLVLEKEKLSAMQAHLAGKMALTKASSVASSDKGSCCIVAAGSQGPVVPAWSGPREAPDSLFAVRRHLWGSHGNSTFPEFLHNMDYFKFHNMRPPFTYATLIRWAILEAPEKQRTLNEIYHWFTRMFAFFRNHPATWKNAIRHNLSLHKCFVRVESEKGAVWTVDELEFRKKRGQRPSRCSNPTPGP [S418G] | increasing interaction strength |
